Laboratory results as given in the supplement of paper PMC9112550, “Optimization of the antimicrobial peptide Bac7 by deep mutational scanning” (BMC Biology, 2022).

Tested on: Escherichia coli TOP10
Experiment: shrunken log2 fold change of peptide-encoding DNA abundance (4.5 h post-induction vs induction); higher = less antimicrobial activity (less host growth inhibition)
Conditions: time post-induction: 4.5 h; library: site-saturation at positions 5, 18, 19, 20
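Note: peptides expressed intracellularly from a pBAD plasmid library in pooled LB shake-flask culture, induced with 0.3% L-arabinose, DNA abundance read by NGS, three biological replicates, DESeq2 with apeglm shrinkage.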

| Sequence | shrunken log2 fold change |
| --- | --- |
| RRIRSRPPRLPRPRPRPLMQPRP | -0.0707 |
| RRIRRRPPRLPRPRPRPQVQPRP | 0.0152 |
| RRIRRRPPRLPRPRPRPDFPPRP | 0.897 |
| RRIRYRPPRLPRPRPRPTDPPRP | -0.107 |
| RRIRHRPPRLPRPRPRPKKSPRP | -0.0145 |
| RRIRYRPPRLPRPRPRPNNRPRP | -0.00509 |
| RRIRWRPPRLPRPRPRPKNSPRP | 0.318 |
| RRIRDRPPRLPRPRPRPYGGPRP | -0.122 |
| RRIRERPPRLPRPRPRPLCMPRP | -0.592 |
| RRIRSRPPRLPRPRPRPHDGPRP | -0.01 |
| RRIRWRPPRLPRPRPRPDWCPRP | 0.112 |
| RRIRDRPPRLPRPRPRPMKDPRP | -0.0395 |
| RRIRERPPRLPRPRPRPVRFPRP | 0.431 |
| RRIRVRPPRLPRPRPRPYGAPRP | 0.162 |
| RRIRWRPPRLPRPRPRPYQKPRP | -0.0398 |
| RRIRWRPPRLPRPRPRPKMNPRP | 0.0146 |
| RRIRSRPPRLPRPRPRPMGTPRP | 0.194 |
| RRIRPRPPRLPRPRPRPKVRPRP | 0.161 |
| RRIRDRPPRLPRPRPRPGHAPRP | 0.648 |
| RRIRVRPPRLPRPRPRPLFRPRP | -0.134 |
| RRIRERPPRLPRPRPRPRATPRP | 0.278 |
| RRIRDRPPRLPRPRPRPMMNPRP | -0.00862 |
| RRIRVRPPRLPRPRPRPSQLPRP | -0.234 |
| RRIRERPPRLPRPRPRPQQNPRP | -0.122 |
| RRIRPRPPRLPRPRPRPSFQPRP | 0.0876 |

| Sequence | shrunken log2 fold change |
| --- | --- |
| RRIRKRPPRLPRPRPRPFRCPRP | -0.142 |
| RRIRGRPPRLPRPRPRPCMLPRP | 0.336 |
| RRIRYRPPRLPRPRPRPRYEPRP | -0.415 |
| RRIRCRPPRLPRPRPRPDFCPRP | -0.228 |
| RRIRWRPPRLPRPRPRPTCMPRP | 0.553 |
| RRIRNRPPRLPRPRPRPVWMPRP | -0.0917 |
| RRIRTRPPRLPRPRPRPCVRPRP | 0.116 |
| RRIRYRPPRLPRPRPRPKKPPRP | 0.00704 |
| RRIRVRPPRLPRPRPRPDFHPRP | -0.208 |
| RRIRFRPPRLPRPRPRPKKRPRP | 0.3 |
| RRIRTRPPRLPRPRPRPLHHPRP | -0.494 |
| RRIRPRPPRLPRPRPRPNIGPRP | 0.0125 |
| RRIRNRPPRLPRPRPRPEWMPRP | 0.066 |
| RRIRRRPPRLPRPRPRPWRPPRP | 0.734 |
| RRIRARPPRLPRPRPRPCDMPRP | 0.208 |
| RRIRRRPPRLPRPRPRPRWMPRP | 0.25 |
| RRIRVRPPRLPRPRPRPKEQPRP | -0.0164 |
| RRIRTRPPRLPRPRPRPSCEPRP | -0.252 |
| RRIRERPPRLPRPRPRPHKHPRP | -0.671 |
| RRIRLRPPRLPRPRPRPKFCPRP | -0.0573 |
| RRIRRRPPRLPRPRPRPLEAPRP | 0.404 |
| RRIRPRPPRLPRPRPRPRMWPRP | 0.413 |
| RRIRGRPPRLPRPRPRPIWLPRP | 0.159 |
| RRIRSRPPRLPRPRPRPMQVPRP | -0.064 |
| RRIRARPPRLPRPRPRPRGRPRP | 0.703 |
